Laboratory results published in paper PMC7261417.

Target: T1, aquaporin-Z, P60844
T1 chain: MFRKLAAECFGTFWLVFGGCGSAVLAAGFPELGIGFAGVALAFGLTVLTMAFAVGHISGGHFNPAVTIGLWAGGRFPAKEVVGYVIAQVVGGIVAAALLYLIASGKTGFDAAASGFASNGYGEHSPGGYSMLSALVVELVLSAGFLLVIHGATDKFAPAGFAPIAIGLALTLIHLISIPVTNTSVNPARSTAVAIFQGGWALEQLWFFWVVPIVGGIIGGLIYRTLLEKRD
Test: native MS
Conditions: remark: other sources report otherwise

stoichiometry N: 4
B1: aquaporin-Z, P60844 1-231 (natural protein)
chain: MFRKLAAECFGTFWLVFGGCGSAVLAAGFPELGIGFAGVALAFGLTVLTMAFAVGHISGGHFNPAVTIGLWAGGRFPAKEVVGYVIAQVVGGIVAAALLYLIASGKTGFDAAASGFASNGYGEHSPGGYSMLSALVVELVLSAGFLLVIHGATDKFAPAGFAPIAIGLALTLIHLISIPVTNTSVNPARSTAVAIFQGGWALEQLWFFWVVPIVGGIIGGLIYRTLLEKRD
modifications: here or on the partner: multiple N-terminal formylation modifications; multiple N-terminal formylation modifications
